The values below come from paper PMC4872226, “A rationally engineered yeast pyruvyltransferase Pvg1p introduces sialylation-like properties in neo-human-type complex oligosaccharide” (Scientific Reports, 2016).

This series concerns the molecule itself. In words: crystal structure; hanging-drop vapor diffusion at 20 °C; 10 mg/mL Pvg1p in 100 mM MOPS-NaOH pH 7.4 with 20 mM PEP and 5 mM pNP-β-Gal; well solution with 10 mM zinc chloride; 2.46 Å; dimer in the asymmetric unit.

B1: fission yeast pyruvyltransferase Pvg1p (enzyme, Schizosaccharomyces pombe, UniProt Q9UT27 32-401, looked up)
chain: DLQTLKNPSSLTSPSSSTSVDKKKPLFTKSPRNSASCESTITLQSNLLFTYYKHYFAGIKKVALIGFPDHPNKGDSAIYVAEKKLLDALNIEVVYITAQEADYSASELKSIISDIPRDEFALAFHGGGNFGDLYPDHQHLRELVVRDFPSFTTISFPQSVWYNEQQLLEQASILYAENPNITLVTRDRQSYGFAVDAFGKHNEVLLTPDIVFFMGPIPEIREATPITHDVLILARLDHEGGQQHGAEDYYRDTLNAANLTYSVEDWLLWDPPVAQNPDSSFDDRGQARYEAGAEFLASARVVITDRLHAHILSTLMGIPHIVVENSQMGKITNYHNTWLHGCTLDGVSVVVDSVDKALSLLLEWNEAGYF
notes: Pvg1p, pyruvyltransferase of Schizosaccharomyces pombe; the D32-F401 portion (without the predicted N-terminal transmembrane region) was used for crystallization; disulfide bond C68-C373 seen in the crystal structure; Expression plasmid pET32b-pvg1; also called recombinant Pvg1p
Regarding B1, the “stoichiometry N” value worked out at 2.

Usually stoichiometry N stands for the number of molecules, sites or subunits per partner or assembly.
